± gives the standard deviation.
Experiment: collision cross section of modified peptide (TIMS, N2, iRT-aligned); higher = larger / more extended gas-phase ion
Summary of the method: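 Synthetic peptide pools (~100 fmol/µL in 2% acetonitrile/0.1% formic acid, iRT standard spiked 1:40) were separated on a 120-min nanoflow C18 gradient at 60 °C. They were analysed on a timsTOF Pro/HT (dda-PASEF, nitrogen, ~2.4 mbar) and identified with MaxQuant. 1/K0 was calibrated with three reference ions and aligned run-wise to the median iRT peptide deviation. Collision cross section came from the Mason-Schamp equation, averaging 1–3 technical replicates of the most abundant feature per charge state.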

[1] = charge state: 2, modification: Formyl
[2] = charge state: 3, modification: Formyl
[3] = charge state: 2, modification: Trimethyl (K)
[4] = charge state: 3, modification: Trimethyl (K)
[5] = charge state: 3, modification: Hydroxyproline
[6] = charge state: 2, modification: Citrullination (R)
[7] = charge state: 3, modification: Citrullination (R)
[8] = charge state: 2, modification: Crotonyl
[9] = charge state: 3, modification: Crotonyl
[10] = charge state: 2, modification: Butyryl
[11] = charge state: 2, modification: Malonyl
[12] = charge state: 3, modification: Butyryl
[13] = charge state: 2, modification: Methyl (K)
[14] = charge state: 3, modification: Methyl (K)
[15] = charge state: 2, modification: Acetyl (K)
[16] = charge state: 2, modification: Methyl (R)
[17] = charge state: 3, modification: Methyl (R)
[18] = charge state: 2, modification: Phospho (Y)
[19] = charge state: 2, modification: Hydroxyproline
[20] = charge state: 2, modification: hydroxyisobutyryl
[21] = charge state: 3, modification: hydroxyisobutyryl
[22] = charge state: 2, modification: Succinyl
[23] = charge state: 3, modification: Malonyl
[24] = charge state: 2, modification: Glutarylation
[25] = charge state: 2, modification: GlyGly (K)
[26] = charge state: 3, modification: GlyGly (K)

SLEEEGAAHSGKR [_SLEEEGAAHSGK(Formyl)R_]
collision cross section [1]: 409.43 ± 1.8 Å²
collision cross section [2]: 472.26 ± 2.9 Å²

SLFFGGKGAPLQR [_SLFFGGK(Trimethyl (K))GAPLQR_]
collision cross section [3]: 413.8 ± 0.016 Å²
collision cross section [4]: 456.34 ± 1.8 Å²

LGPPGNPGPSGSPGPKGQK [_LGPPGNP(Hydroxyproline)GPSGSPGPKGQK_]
collision cross section [5]: 472.87 ± 1.2 Å²

GAPGGRGAQLSVPSPAR [_GAPGGR(Citrullination (R))GAQLSVPSPAR_]
collision cross section [6]: 412.31 ± 0.55 Å²

RLPNVHGR [_R(Citrullination (R))LPNVHGR_]
collision cross section [6]: 340.93 ± 1.6 Å²
collision cross section [7]: 417.11 ± 3.5 Å²

LQAAYAGDKADDIQK [_LQAAYAGDK(Crotonyl)ADDIQK_]
collision cross section [8]: 436.53 ± 0.29 Å²
collision cross section [9]: 487.02 ± 2.8 Å²

IGNSYFKEEK [_IGNSYFK(Butyryl)EEK_]
collision cross section [10]: 377.97 ± 0.72 Å²

TVSKVDDFLANEAK [_TVSK(Malonyl)VDDFLANEAK_]
collision cross section [11]: 420.45 ± 0.57 Å²

LQEKVESAQSEQK [_LQEK(Butyryl)VESAQSEQK_]
collision cross section [10]: 419.43 ± 0.77 Å²
collision cross section [12]: 504.21 ± 1.9 Å²

IQTKAGEATVK [_IQTK(Butyryl)AGEATVK_]
collision cross section [10]: 371.66 ± 1.8 Å²

ISSNFSSIIAEKLR [_ISSNFSSIIAEK(Trimethyl (K))LR_]
collision cross section [4]: 499.26 ± 8.7 Å²

SLFFGGKGAPLQR [_SLFFGGK(Methyl (K))GAPLQR_]
collision cross section [13]: 405.87 ± 0.92 Å²
collision cross section [14]: 448.66 ± 4 Å²

ISEILLDHGAPIQAK [_IS(HexNAc (ST))EILLDHGAPIQAK_]
collision cross section (charge state: 2, modification: HexNAc (ST)): 457.74 ± 0.56 Å²
collision cross section (charge state: 3, modification: HexNAc (ST)): 559.32 ± 1.1 Å²

PSVSTKLISK [_PSVSTK(Acetyl (K))LISK_]
collision cross section [15]: 351 ± 0.96 Å²

GLATFPSRGAK [_GLATFPSR(Methyl (R))GAK_]
collision cross section [16]: 371.86 ± 0.78 Å²
collision cross section [17]: 447 ± 3.2 Å²

VDIDVPDVNIEGPDAKLK [_VDIDVPDVNIEGPDAK(Crotonyl)LK_]
collision cross section [8]: 487.32 Å²

SEASSEFAKK [_SEASSEFAK(Biotin)K_]
collision cross section (charge state: 2, modification: Biotin): 374.33 Å²

PSVSTKLISK [_PSVSTK(Methyl (K))LISK_]
collision cross section [13]: 356.57 ± 0.35 Å²
collision cross section [14]: 424.71 ± 5.3 Å²

TEVLSPNSKVESK [_TEVLSPNSK(Crotonyl)VESK_]
collision cross section [8]: 417.97 ± 0.81 Å²
collision cross section [9]: 452.38 ± 1.3 Å²

VYSLFLDESR [_VY(Phospho (Y))SLFLDESR_]
collision cross section [18]: 376.54 ± 1.2 Å²

ANLEKAQAELVGTADEATR [_ANLEK(Dimethyl (K))AQAELVGTADEATR_]
collision cross section (charge state: 3, modification: Dimethyl (K)): 525.41 ± 0.76 Å²

VLTANSNPSSPSAAKR [_VLTANSNPSSPSAAK(Acetyl (K))R_]
collision cross section [15]: 425 ± 2.5 Å²
collision cross section (charge state: 3, modification: Acetyl (K)): 527.55 ± 2.3 Å²

VGYPGPSGPLGAR [_VGYP(Hydroxyproline)GPSGPLGAR_]
collision cross section [19]: 356.91 ± 0.79 Å²
collision cross section [5]: 437.31 ± 1.7 Å²

VGTASVLQPVKK [_VGTASVLQPVK(Methyl (K))K_]
collision cross section [13]: 392.83 ± 0.43 Å²
collision cross section [14]: 460.66 ± 3.8 Å²

GEGGFGGRGGGR [_GEGGFGGR(Methyl (R))GGGR_]
collision cross section [16]: 345.55 ± 1 Å²
collision cross section [17]: 413.1 Å²

PASGAGAGAGAGKR [_PASGAGAGAGAGK(hydroxyisobutyryl)R_]
collision cross section [20]: 363.2 ± 0.9 Å²
collision cross section [21]: 470.09 ± 2.8 Å²

GVPRGVHLGSQGLQR [_GVPR(Citrullination (R))GVHLGSQGLQR_]
collision cross section [6]: 439.96 Å²
collision cross section [7]: 482.18 ± 0.41 Å²

TPNLYIYSKK [_TPNLYIYSK(hydroxyisobutyryl)K_]
collision cross section [20]: 388.68 ± 3 Å²

SEASSEFAKK [_SEASSEFAK(Crotonyl)K_]
collision cross section [8]: 355.23 ± 0.57 Å²

ASDTSSETVFGKR [_ASDTSSETVFGK(Succinyl)R_]
collision cross section [22]: 396.57 ± 0.25 Å²
collision cross section (charge state: 3, modification: Succinyl): 482.91 ± 3.3 Å²

VLDSGAPIKIPVGPETLGR [_VLDSGAPIK(hydroxyisobutyryl)IPVGPETLGR_]
collision cross section [20]: 472.45 ± 0.87 Å²
collision cross section [21]: 522.22 ± 1.2 Å²

GFCFITYTDEEPVKK [_GFCFITYTDEEPVK(Trimethyl (K))K_]
collision cross section [3]: 480.23 Å²

FSAYIKNSNPALNDNLEK [_FSAYIK(Formyl)NSNPALNDNLEK_]
collision cross section [1]: 479.47 ± 1.3 Å²
collision cross section [2]: 528.92 ± 9.9 Å²

IVSGKDYNVTANSK [_IVSGK(Malonyl)DYNVTANSK_]
collision cross section [11]: 407.96 ± 0.037 Å²
collision cross section [23]: 465.84 ± 1.8 Å²

AAINQKLIETGER [_AAINQK(Malonyl)LIETGER_]
collision cross section [11]: 404.84 ± 0.034 Å²
collision cross section [23]: 473.19 Å²

SEASSEFAKK [_SEASSEFAK(Succinyl)K_]
collision cross section [22]: 351.69 ± 0.87 Å²

INNFSADIKDSK [_INNFSADIK(Gluratylation)DSK_]
collision cross section [24]: 404.4 ± 4.7 Å²
collision cross section (charge state: 3, modification: Glutarylation): 469.07 Å²

SNEEGSEEKGPEVR [_SNEEGSEEK(Succinyl)GPEVR_]
collision cross section [22]: 403.42 ± 0.55 Å²

VNVEAPDVNLEGLGGKLK [_VNVEAPDVNLEGLGGK(Butyryl)LK_]
collision cross section [10]: 466.95 ± 0.75 Å²
collision cross section [12]: 548.3 ± 0.14 Å²

PSVSTKLISK [_PSVSTK(Dimethyl (K))LISK_]
collision cross section (charge state: 2, modification: Dimethyl (K)): 362.9 ± 0.28 Å²

LGNDFHTNKR [_LGNDFHTNK(Trimethyl (K))R_]
collision cross section [4]: 415.91 ± 2.1 Å²

VNIGQGSHPQKVK [_VNIGQGSHPQK(Trimethyl (K))VK_]
collision cross section [3]: 405.12 ± 1.9 Å²
collision cross section [4]: 473.39 ± 2.7 Å²

DLATVYVDVLK [_DLATVY(Nitro (Y))VDVLK_]
collision cross section (charge state: 2, modification: Nitro (Y)): 387.27 ± 0.74 Å²

ANLEKAQAELVGTADEATR [_ANLEK(Butyryl)AQAELVGTADEATR_]
collision cross section [10]: 479.49 ± 1.1 Å²
collision cross section [12]: 578.23 ± 2 Å²

TLQKQSVVYGGK [_TLQK(Crotonyl)QSVVYGGK_]
collision cross section [8]: 396.64 ± 0.8 Å²

LLIVSTTPYSEKDTK [_LLIVSTTPYSEK(Crotonyl)DTK_]
collision cross section [8]: 458.47 ± 1.4 Å²
collision cross section [9]: 486.79 ± 2.7 Å²

GSLEKGSPEDK [_GSLEK(Gluratylation)GSPEDK_]
collision cross section [24]: 373.46 ± 0.99 Å²

VHATSTYR [_VHATSTY(Phospho (Y))R_]
collision cross section [18]: 330.17 ± 0.75 Å²
collision cross section (charge state: 3, modification: Phospho (Y)): 411.28 Å²

IVFSGNLFQHQEDSKK [_IVFSGNLFQHQEDSK(GlyGly (K))K_]
collision cross section [25]: 491.77 Å²
collision cross section [26]: 544.77 ± 1.6 Å²

FPGVGVLPGVPTGAGVKPK [_FPGVGVLPGVPTGAGVKP(Hydroxyproline)K_]
collision cross section [19]: 440.08 ± 1.4 Å²
collision cross section [5]: 556.97 ± 11 Å²

DLGKFQVATDALK [_DLGK(GlyGly (K))FQVATDALK_]
collision cross section [25]: 422.76 ± 0.97 Å²
collision cross section [26]: 498.2 ± 1.1 Å²

GRGTGEAEEEYVGPR [_GR(Methyl (R))GTGEAEEEYVGPR_]
collision cross section [17]: 491.55 ± 1.6 Å²

VGLQVVAVKAPGFGDNR [_VGLQVVAVK(Methyl (K))APGFGDNR_]
collision cross section [13]: 454.02 ± 2.2 Å²
collision cross section [14]: 491.77 ± 3.2 Å²

Source: the supplement of paper PMC10598134
